Experimental data: patent US20260048120A1

Biological target: Fas receptor (Fas, CD95) on human T cells (human) (UniProt P25445)
Assay: cell-based or functional assay

UniProt P25445, sequence (P25445 26-335): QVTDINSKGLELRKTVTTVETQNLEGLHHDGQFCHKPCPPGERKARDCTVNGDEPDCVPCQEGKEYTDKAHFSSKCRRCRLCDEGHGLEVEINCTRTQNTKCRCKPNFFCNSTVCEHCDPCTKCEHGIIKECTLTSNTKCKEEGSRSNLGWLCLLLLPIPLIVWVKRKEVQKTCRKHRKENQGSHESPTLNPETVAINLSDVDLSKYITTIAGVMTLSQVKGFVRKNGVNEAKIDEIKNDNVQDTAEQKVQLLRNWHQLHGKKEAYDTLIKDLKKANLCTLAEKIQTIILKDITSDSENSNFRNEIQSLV

Work on “recombinant human FasL (BioLegend) (from UniProt P48023 134-281) (ligand)” yielded a cell survival rate (Annexin V- & DAPI-) after about 16 h of 100 ng/mL FasL, SPPL3-KO Jurkat T cells of 63.1%, a cell survival rate (Annexin V- & DAPI-) after about 16 h of 100 ng/mL FasL, control (NT-KO) Jurkat T cells of 25.7% and a cell survival rate of the Cas9+ sgRNA-iBAR Jurkat T cell library after the first round of 10 ng/ml FasL of 4%. The cell survival rate of the Cas9+ sgRNA-iBAR Jurkat T cell library after the second round of 10 ng/ml FasL was 44.8%, the cell survival rate of the Cas9+ sgRNA-iBAR Jurkat T cell library after the third round of 10 ng/ml FasL was 55.5% and the share of CTV-labeled SPPL3-KO primary T cells in a 1:1 mix with CFSE-labeled NT-KO primary T cells after 16 h of 500 ng/mL FasL (49.2% without FasL) was 75.3%.
